Assay results: paper PMC2570549

Experiments:
[1] = biological target: human thrombin (human)
[2] = biological target: human thrombin (human); remark: listed apart in the source

## Serp-1, secreted myxoma viral serpin (recombinant) (from UniProt P12393 1-369) (natural protein)
[1]
  inhibition of thrombin activity (chromogenic substrate S-2238), 19 ng Serp-1 in the presence of heparin (0.2 IU), thrombin 0.002 NIH units: 75%
  inhibition of thrombin activity (chromogenic substrate S-2238), no heparin, thrombin 0.002 NIH units, Serp-1 1250, 600 and 300 ng (75%, 65%, 25%); no inhibition at or below 150 ng: 75%
[2]
  inhibition of thrombin (0.125 NIH units) by Serp-1 at 500 ng over 1 to 20 minutes, no heparin, discontinuous chromogenic assay: 86%
